From the supplement of paper PMC5998384 come the findings set out here.

Data set [1] concerns HeLa Kyoto. The experiment in a line: solubility in G1/S (NP-40 vs SDS abundance) (log2 ratio); higher = more soluble. The note with it: cell cycle stage: G1/S.
The subject of data set [2] is HeLa Kyoto. The experiment in a line: solubility change mitosis vs G1/S (difference of NP-40 vs SDS log2 ratios) (log2 ratio difference); higher = more soluble in mitosis.
In data set [3] the test system is HeLa Kyoto. The experiment in a line: thermal stability score vs G1/S (z-score of summed log2 fold changes over temperatures); higher = more thermally stable than in G1/S.
In data set [4] the test system is HeLa Kyoto. The experiment in a line: melting temperature (median over replicates), in situ; higher = more thermally stable.
The mark [5] stands for this setting: cell cycle stage: early G1 (4.5 h after nocodazole release).
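Wherever melting temperature (median over replicates), in situ is given: HeLa Kyoto cells synchronized by double thymidine or nocodazole block, proteins quantified by TMT10plex mass spectrometry, three independent biological replicates.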
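Wherever solubility change mitosis vs G1/S (difference of NP-40 vs SDS log2 ratios) is given: synchronized HeLa Kyoto cells (double thymidine block for G1/S, nocodazole release for mitosis), protein amounts in NP-40 versus SDS lysates quantified by mass spectrometry, three biological replicates.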
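Wherever solubility in G1/S (NP-40 vs SDS abundance) is given: HeLa Kyoto cells arrested at G1/S by double thymidine block, proteins quantified by TMT10plex mass spectrometry in mild NP-40 versus SDS extracts, three biological replicates.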
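Wherever thermal stability score vs G1/S (z-score of summed log2 fold changes over temperatures) is given: synchronized HeLa Kyoto cells, proteins quantified by TMT10plex mass spectrometry, three biological replicates, mitosis taken 0.5 h after nocodazole release, G1/S directly after double thymidine block.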

On to “MAASGAVEPGPPGAAVAPSPAPAPPPAPDHLFRPISAEDEEQQPTEIESLCMNCYCNGMTRLLLTKIPFFREIIVSSFSCEHCGWNNTEIQSAGRIQDQGVRYTLSVRALEDMNREVVKTDSAATRIPELDFEIPAFSQKGALTTVEGLITRAISGLEQDQPARRANKDATAERIDEFIVKLKELKQVASPFTLIIDDPSGNSFVENPHAPQKDDALVITHYNRTRQQEEMLGLQEEAPAEKPEEEDLRNEVLQFSTNCPECNAPAQTNMKLVQIPHFKEVIIMATNCENCGHRTNEVKSGGAVEPLGTRITLHITDASDMTRDLLKSETCSVEIPELEFELGMAVLGGKFTTLEGLLKDIRELVTKNPFTLGDSSNPGQTERLQEFSQKMDQIIEGNMKAHFIMDDPAGNSYLQNVYAPEDDPEMKVERYKRTFDQNEELGLNDMKTEGYEAGLAPQR [ZPR1]”, for which the “solubility in G1/S (log2)” value in data set [1] stood at 0.433. For the same sequence, the “solubility change mitosis (log2)” value in data set [2] is -0.0376. In addition, the values for the thermal stability score in data set [3] (setting [5]) and in data set [3] (cell cycle stage: mitosis) were -0.562 and -0.171, respectively. Further, the figures for the melting temperature in data set [4] (cell cycle stage: G1/S) and in data set [4] (cell cycle stage: mitosis) were 52.6 °C and 52.5 °C, respectively.

Regarding “MAASMCDVFSFCVGVAGRARVSVEVRFVSSAKGKGLFATQLIRKGETIFVERPLVAAQFLWNALYRYRACDHCLRALEKAEENAQRLTGKPGQVLPHPELCTVRKDLHQNCPHCQVMYCSAECRLAATEQYHQVLCPGPSQDDPLHPLNKLQEAWRSIHYPPETASIMLMARMVATVKQAKDKDRWIRLFSQFCNKTANEEEEIVHKLLGDKFKGQLELLRRLFTEALYEEAVSQWFTPDGFRSLFALVGTNGQGIGTSSLSQWVHACDTLELKPQDREQLDAFIDQLYKDIEAATGEFLNCEGSGLFVLQSCCNHSCVPNAETSFPENNFLLHVTALEDIKPGEEICISYLDCCQRERSRHSRHKILRENYLFVCSCPKCLAEADEPNVTSEEEEEEEEEEEGEPEDAELGDEMTDV [SMYD5]”, the “solubility in G1/S (log2)” value in data set [1] is -0.147. The “solubility change mitosis (log2)” value in data set [2] is -0.154. Further, the thermal stability score in data set [3] (setting [5]) is 1.21; in data set [3] (cell cycle stage: mitosis) it was -0.768. Moreover, the melting temperature is 53.4 °C in data set [4] (cell cycle stage: G1/S) and 53.1 °C in data set [4] (cell cycle stage: mitosis).

Turning to “MAASMFYGRLVAVATLRNHRPRTAQRAAAQVLGSSGLFNNHGLQVQQQQQRNLSLHEYMSMELLQEAGVSVPKGYVAKSPDEAYAIAKKLGSKDVVIKAQVLAGGRGKGTFESGLKGGVKIVFSPEEAKAVSSQMIGKKLFTKQTGEKGRICNQVLVCERKYPRREYYFAITMERSFQGPVLIGSSHGGVNIEDVAAESPEAIIKEPIDIEEGIKKEQALQLAQKMGFPPNIVESAAENMVKLYSLFLKYDATMIEINPMVEDSDGAVLCMDAKINFDSNSAYRQKKIFDLQDWTQEDERDKDAAKANLNYIGLDGNIGCLVNGAGLAMATMDIIKLHGGTPANFLDVGGGATVHQVTEAFKLITSDKKVLAILVNIFGGIMRCDVIAQGIVMAVKDLEIKIPVVVRLQGTRVDDAKALIADSGLKILACDDLDEAARMVVKLSEIVTLAKQAHVDVKFQLPI [SUCLA2]”, the “solubility in G1/S (log2)” value in data set [1] turned out to be 0.0965. The “solubility change mitosis (log2)” value in data set [2] was -0.0729. Also, the thermal stability score in data set [3] (setting [5]) was -0.13; in data set [3] (cell cycle stage: mitosis), 1.1. In addition, the figures for the melting temperature in data set [4] (cell cycle stage: G1/S) and in data set [4] (cell cycle stage: mitosis) were 49.7 °C and 49.8 °C, respectively.

With “MAASRWARKAVVLLCASDLLLLLLLLPPPGSCAAEGSPGTPDESTPPPRKKKKDIRDYNDADMARLLEQWEKDDDIEEGDLPEHKRPSAPVDFSKIDPSKPESILKMTKKGKTLMMFVTVSGSPTEKETEEITSLWQGSLFNANYDVQRFIVGSDRAIFMLRDGSYAWEIKDFLVGQDRCADVTLEGQVYPGKGGGSKEKNKTKQDKGKKKKEGDLKSRSSKEENRAGNKREDL [MESDC2]”, the “solubility in G1/S (log2)” value in data set [1] turned out to be 0.269. For the same sequence, in data set [2], the “solubility change mitosis (log2)” value is -0.0464. The thermal stability score in data set [3] (setting [5]) stood at 3.56; in data set [3] (cell cycle stage: mitosis), 2.22. Also, the melting temperature is 55.5 °C in data set [4] (cell cycle stage: G1/S) and 56.3 °C in data set [4] (cell cycle stage: mitosis).

As for “MAATASAGAGGIDGKPRTSPKSVKFLFGGLAGMGATVFVQPLDLVKNRMQLSGEGAKTREYKTSFHALTSILKAEGLRGIYTGLSAGLLRQATYTTTRLGIYTVLFERLTGADGTPPGFLLKAVIGMTAGATGAFVGTPAEVALIRMTADGRLPADQRRGYKNVFNALIRITREEGVLTLWRGCIPTMARAVVVNAAQLASYSQSKQFLLDSGYFSDNILCHFCASMISGLVTTAASMPVDIAKTRIQNMRMIDGKPEYKNGLDVLFKVVRYEGFFSLWKGFTPYYARLGPHTVLTFIFLEQMNKAYKRLFLSG [SLC25A11]”, in data set [1], the “solubility in G1/S (log2)” value was -0.0956. The “solubility change mitosis (log2)” value in data set [2] is -0.187. Also, the thermal stability score in data set [3] (setting [5]) is -1.46; in data set [3] (cell cycle stage: mitosis), -2.54. The melting temperature came to 59.1 °C in data set [4] (cell cycle stage: G1/S) and 59.8 °C in data set [4] (cell cycle stage: mitosis).

With “MAATFFGEVVKAPCRAGTEDEEEEEEGRRETPEDREVRLQLARKREVRLLRRQTKTSLEVSLLEKYPCSKFIIAIGNNAVAFLSSFVMNSGVWEEVGCAKLWNEWCRTTDTTHLSSTEAFCVFYHLKSNPSVFLCQCSCYVAEDQQYQWLEKVFGSCPRKNMQITILTCRHVTDYKTSESTGSLPSPFLRALKTQNFKDSACCPLLEQPNIVHDLPAAVLSYCQVWKIPAILYLCYTDVMKLDLITVEAFKPILSTRSLKGLVKNIPQSTEILKKLMTTNEIQSNIYT [PSMG1]”, in data set [1], the “solubility in G1/S (log2)” value was 0.0966. The “solubility change mitosis (log2)” value in data set [2] is -0.142. The thermal stability score in data set [3] (setting [5]) was -0.428; in data set [3] (cell cycle stage: mitosis), -1.27. In addition, the melting temperature in data set [4] (cell cycle stage: G1/S) is 54.7 °C; in data set [4] (cell cycle stage: mitosis) it was 54.4 °C.

Consider “MAATGANAEKAESHNDCPVRLLNPNIAKMKEDILYHFNLTTSRHNFPALFGDVKFVCVGGSPSRMKAFIRCVGAELGLDCPGRDYPNICAGTDRYAMYKVGPVLSVSHGMGIPSISIMLHELIKLLYYARCSNVTIIRIGTSGGIGLEPGTVVITEQAVDTCFKAEFEQIVLGKRVIRKTDLNKKLVQELLLCSAELSEFTTVVGNTMCTLDFYEGQGRLDGALCSYTEKDKQAYLEAAYAAGVRNIEMESSVFAAMCSACGLQAAVVCVTLLNRLEGDQISSPRNVLSEYQQRPQRLVSYFIKKKLSKA [UPP1]”, for which the “solubility in G1/S (log2)” value in data set [1] was found to be 0.102. The “solubility change mitosis (log2)” value in data set [2] was -0.279. The results for the thermal stability score in data set [3] (setting [5]) and in data set [3] (cell cycle stage: mitosis) were -4.67 and -3.64, respectively. The melting temperature is 56.8 °C in data set [4] (cell cycle stage: G1/S) and 56.3 °C in data set [4] (cell cycle stage: mitosis).
